Data published in the supplement of paper PMC10567573.

B1: FBXO34 (parent)
chain: ASSVESTLPVLEASSWKKQVSHDF

Variants of: B1
Assay: protein stability index of a GFP-peptide fusion (GPS, HEK-293T) (PSI 1-6); higher = more stable
Settings: c terminus: a fixed tail appended
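Note: lentivirally expressed fusions sorted by FACS into six bins by GFP to DsRed ratio, PSI derived from sequencing read proportions per bin multiplied by bin number.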

Variant	protein stability index
S21A	3.31
S21R	3.79
S21N	3.64
S21W	2.3
S21V	3.65
S21Y	2.97
S21F	2.89
S21K	3.26
S21P	3.87
S21I	2.64
S21G	2.79
S21E	2.76
S21D	4.89
S21L	2.44
S21H	3.58
S21T	3.61
S21M	3
S21Q	3.08
S21C	2.72
S14P	3.07
S14R	2.39
S14Q	2.4
S14H	2.4
S14T	2.33

Variant	protein stability index
S14L	2.14
S14M	1.53
S14Y	2.3
S14G	2.8
S14W	1.12
S14I	3.74
S14V	2.35
S14N	3.02
D23L	3.27
D23Q	2.93
D23C	2.22
D23I	2.07
D23S	3.14
D23R	3.76
D23E	1.77
D23Y	2.18
D23W	2.61
D23M	2.96
D23A	3.54
D23G	3.06
D23F	3.22
D23P	2.91
D23T	3.26
D23H	3.27

Variant	protein stability index
D23K	3.54
V20W	2.47
V20P	4.04
V20E	4.85
V20I	3.69
V20C	3.44
V20N	4.13
V20L	3.55
V20A	3.91
V20R	4.22
V20F	3.72
V20D	4.84
V20Q	4.01
V20M	4.34
V20K	4.3
V20G	4.09
V20T	4.29
V20Y	3.5
V20H	4.6
W16T	4.81
W16F	3.67
W16K	4.18
W16Y	3.75
W16N	4.99

Variant	protein stability index
W16I	3.71
W16H	4.31
W16L	3.94
W16M	5.15
W16Q	4.71
W16C	4.2
W16G	4.66
W16D	5.44
W16P	4.61
W16R	4.69
W16S	4.2
W16A	4.01
W16V	4.99
W16E	5.07
H22N	2.54
H22K	3.31
H22D	3.65
H22Y	3.01
H22S	2.79
H22V	2.83
H22F	2.73
H22I	2.84
H22T	3.19
H22R	2.09

Variant	protein stability index
H22M	2.23
H22L	3.36
H22Q	2.58
H22E	2.69
H22G	4.47
H22C	2.94
H22W	2.18
H22P	4.1
F24A	3.78
F24C	3.49
F24G	2.98
F24W	2.45
F24K	4.79
F24S	4.33
F24Q	4.25
F24R	4.53
F24M	3
F24T	3.77
F24H	3.98
F24N	4.25
F24Y	3
F24V	3.83
F24P	4.26
F24L	2.31

Variant	protein stability index
F24I	2.19
K18E	1.38
K18R	3.15
K18I	2.37
K18M	1.5
K18C	2.11
K18W	2.58
K18G	3.49
K18L	2.83
K18P	2.99
K18N	2.94
K18H	2.39
K18T	2.95
K18Q	2.69
K18D	1.88
K18S	3.72
K18A	2.21
K18Y	2.44
K18F	1.8
K18V	2.53
K17G	2.98
K17C	3.17
K17A	1.83
K17F	2.85

Variant	protein stability index
K17H	3.17
K17P	3.95
K17I	1.59
K17L	2.85
K17W	2.02
K17Y	2.38
K17Q	1.52
K17N	3.75
K17S	2.38
K17T	1.61
K17M	2.58
K17D	4.16
S15M	3.5
S15G	3.65
S15R	3.81
S15Y	2.99
S15A	3.05
S15I	4.11
S15N	2.88
S15V	2.84
S15P	3.61
S15Q	3.44
S15W	2.38
